In patent US20200207835A1, “SRCP1-BASED THERAPY FOR DISEASES ASSOCIATED WITH PROTEIN AGGREGATION” (THE MEDICAL COLLEGE OF WISCONSIN, INC., priority 2017, published 2020):

Columns and labels:
HEK293 cells = experiment: Cell viability assay (CellTiter-Glo); assay type: cell-based, human; settings: HEK293 transfected with RFPSRCP1 alone
Method: HEK293 cells were transfected as described with RFP or ^RFPSRCP1. Following transfections, cells were diluted to 500,000 cells/mL with 50,000 cells plated per well in duplicate from each transfection reaction in a 96-well plate. Serial dilutions were then performed down each column of the plate down to 390 cells per well. Cells were cultured for an additional 24 hours, then lysed using the CellTiter-Glo Kit (Promega). Luminescence was quantified between 565-700 nm wavelengths on a Spark microplate reader (Tecan) to determine cell viability.

[1] = system: wild-type or mutant α-synuclein; experiment: α-synuclein levels in HEK293 cells (western blot); assay type: cell-based, human; settings: HEK293, 48 hours, overexpression of SRCP1
Method: HEK 293 cells were transfected with either wild-type or mutant α-synuclein in the presence or absence of SRCP1. Cells were collected 48 hours later and analyzed by SDS-PAGE and western blot.

^GFPHtt^ex1Q74 = ^GFPHtt^ex1Q74 (Homo sapiens, UniProt P42858); experiment: GFPHttex1Q74 aggregation in zebrafish spinal cord neurons; assay type: in vivo; parameters: encoding pEGFP huntingtin exon-1 with 23 (^GFPHtt^ex1Q23) or 74 (^GFPHtt^ex1Q74) glutamines; host or cells: zebrafish embryos injected with in vitro transcribed mRNA; spinal cord neurons imaged; settings: zebrafish embryos injected with RNA
Sequence of ^GFPHtt^ex1Q74 (P42858 with tags, fused parts or gaps): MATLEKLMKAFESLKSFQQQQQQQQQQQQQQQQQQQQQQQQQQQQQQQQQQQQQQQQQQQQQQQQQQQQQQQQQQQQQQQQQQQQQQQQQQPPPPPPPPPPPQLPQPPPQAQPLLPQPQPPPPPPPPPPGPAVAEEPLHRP
Method: To test the effect of ^RFPSRCP1 on ^GFPHtt^ex1Q74 aggregation in zebrafish, each plasmid was used for in vitro synthesis of mRNA (mMessage mMachine T7 transcription kit, ThermoFisher Scientific). Newly fertilized embryos were injected with either 200 pg mRNA each of ^RFPSRCP1 and ^GFPHtt^ex1Q74, or RFP alone and ^GFPHtt^ex1Q74. Embryos were developed until 54 hours post fertilization, at which time live specimens were anesthetized in Tricane, embedded in 1% low-melt agarose, and subjected to confocal microscopy. Spinal cord images were taken at 100 μm×100 μm and a scan depth of 50 μm. Single image planes from 488 nm and 568 nm excitation were collected. Images were then processed for threshold analysis using ImageJ and the total number puncta were scored.

B1: SRCP1: Dictyostelium discoideum serine-rich chaperone protein 1 (SEQ ID NO:2), expressed in cells as RFP-tagged construct (protein)
chain: MTILSTFTSFSNPPKLNKSSFSSSTGSSLSMGSNSFAWGGGWGGFGGPKGGSFNVDIAGNLIWGVYGFIRGGVGLVKWRGLQKGCKQP
modifications: RFP tag; Dictyostelium discoideum AX4
HEK293 cells
  toxicity (viability by CellTiter-Glo): did not display any toxicity
[1]
  α-synuclein levels: results in a reduction of α-synuclein
^GFPHtt^ex1Q74
  GFPHttex1Q74 puncta in spinal cord neurons: significant reduction of ^GFPHtt^ex1Q74 puncta
